Results: patent US20230257470A1 (published 2023)
Each block holds one binder with its values, some of them ahead of it.

Legend:
human FcγRIIb [1] = biological target: T1, human FcγRIIb (human, UniProt P31994 43-217, limits assumed); assay: SPR, captured antibody, FcγR analyte; bound amount per captured antibody
T1 construct: also called FcgRIIb; FcγIIB
T1 sequence: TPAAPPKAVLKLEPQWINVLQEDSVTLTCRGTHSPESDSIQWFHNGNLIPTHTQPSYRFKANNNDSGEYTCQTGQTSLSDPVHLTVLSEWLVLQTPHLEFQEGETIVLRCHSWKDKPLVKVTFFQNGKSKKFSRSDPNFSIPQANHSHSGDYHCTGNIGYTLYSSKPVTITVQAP
Description: Interaction between each modified antibody and Fcγ receptor prepared in the manner described above was analyzed using the BIACORE™ T100 surface plasmon resonance system (GE Healthcare), BIACORE™ T200 surface plasmon resonance system (GE Healthcare), BIACORE™ A100 surface plasmon resonance system or BIACORE™ 4000 surface plasmon resonance system. HBS-EP+(GE Healthcare) was used for the running buffer, and measurements were carried out at 25° C. The chips used were chips in which antigen peptides, Protein A (Thermo Scientific), Protein A/G (Thermo Scientific) or Protein L (ACTIGEN® protein (Alltech or BioVision) were immobilized on the Series S Sensor Chip CM5 (GE Healthcare) or Series S Sensor Chip CM4 (GE Healthcare) by amine coupling, or chips in which preliminarily biotinylated antigen peptides were allowed to interact and then immobilized on the Series S Sensor Chip SA (certified) (GE Healthcare). The target antibodies were captured on these sensor chips, Fcγ receptor diluted with the running buffer was allowed to interact, followed by measurement of the amount of bound antibody. The amounts bound were compared between antibodies. However, since the amount of Fcγ receptor bound depends on the amount of captured antibody, the values used for comparison were first corrected by dividing the amount of Fcγ receptor bound by the captured amount of each antibody. Through reaction with 10 mM glycine-HCl at pH 1.5, the sensor chips were regenerated by washing off antibody captured on the sensor chips and used repeatedly.
Binding strength was evaluated according to the following method based on the results of analyzing the interaction with each FcγR. […] That value was then further multiplied by 100, and the resulting value was used as an indicator of relative binding activity to each FcγR.

human FcγRIIb [2] = biological target: T2, human FcγRIIb (human, UniProt P31994 43-217); assay: ratio of SPR KD values for FcγRIIb; reference: parent polypeptide IL6R-F11/IL6R-L
T2 construct: also called FcγRIIb extracellular region; FcγIIB
T2 sequence: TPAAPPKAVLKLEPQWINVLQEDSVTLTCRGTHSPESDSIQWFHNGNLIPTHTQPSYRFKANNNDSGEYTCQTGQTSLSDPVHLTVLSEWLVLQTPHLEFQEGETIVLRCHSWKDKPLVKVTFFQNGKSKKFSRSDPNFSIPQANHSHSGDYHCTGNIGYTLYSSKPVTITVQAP
Description: (§1) Next, interaction between these antibodies and FcγR was analyzed kinetically using the BIACORE™ T100 (GE Healthcare). The interaction was measured at a temperature of 25° C. using HBS-EP+ (GE Healthcare) for the running buffer. The Series S Sensor Chip CM5 (GE Healthcare) was used after immobilizing Protein A by amine coupling. […] Antibody captured on the chip was washed by allowing 10 mM glycine-HCl (pH 1.5) to react following measurement. The chip regenerated in this manner was used repeatedly. The dissociation constant KD (mol/L) was calculated from the association rate constant ka (L/mol/s) and dissociation rate constant kd (1/s) as calculated by global-fitting the measurement results with a 1:1 Langmuir binding model using the BIACORE™ Evaluation Software.
(§2) Furthermore, KD(IIaR)/KD(IIb) and KD(IIaH)/KD(IIb) in the table respectively show the value obtained by dividing the KD value of each variant for FcγRIIaR by the KD value of each variant for FcγRIIb, and the value obtained by dividing the KD value of each variant for FcγRIIaH by the KD value of each variant for FcγRIIb.

human FcγRIIb [3] = biological target: T2, human FcγRIIb; assay: SPR (Biacore), antibody captured, FcγR as analyte, method of Example 14
Description: as §1, §2

human FcγRIIa type R [4] = biological target: T3, human FcγRIIa type R (human, UniProt P12318 36-217); assay: as above
T3 construct: also called FcγRIIaR; FcγRIIa(R)
T3 chain: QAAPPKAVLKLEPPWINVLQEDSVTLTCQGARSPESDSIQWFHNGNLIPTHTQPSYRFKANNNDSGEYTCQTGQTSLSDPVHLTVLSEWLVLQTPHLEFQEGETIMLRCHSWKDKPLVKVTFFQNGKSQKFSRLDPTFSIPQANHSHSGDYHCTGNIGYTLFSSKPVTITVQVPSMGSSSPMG
Description: as §1, §2

human FcγRIa = biological target: T4, human FcγRIa (human, UniProt P12314 16-292, limits assumed); assay: as above
T4 construct: also called CD64
Description: as §1, §2

human FcγRIIb [5] = biological target: T2, human FcγRIIb; assay: ratio of SPR KD values of the same variant: KD for FcγRIIaH / KD for FcγRIIb
Description: as §1, §2

human FcγRIIb [6] = biological target: T2, human FcγRIIb; assay: ratio of SPR KD values of the same variant: KD for FcγRIIaR / KD for FcγRIIb
Description: as §1, §2

human FcγRIIIa(F) = biological target: T5, human FcγRIIIa(F) (human, UniProt P08637 17-208, limits assumed); assay: SPR (Biacore), antibody captured on Protein L, human FcgR injected, pH 7.4, 25 C; normalised to captured amount x 1500
T5 construct: also called hFcgRIIIa(F); allotype F158
Description: Binding activity between the antibodies and human FcγRIa, FcγRIIa(H), FcγRIIa(R), FcγRIIb and FcγRIIIa(F) (hereinafter referred to as human FcγRs) was evaluated using the BIACORE™ T100 or T200 surface plasmon resonance system (GE Healthcare). The antibodies being tested were captured by Protein L (ACTIGEN® protein (Alltech)) that was immobilized in suitable amounts on the CM4 Sensor Chip (GE Healthcare) by amine coupling. Next, the diluted human FcγRs and a running buffer used as a blank were injected to allow interaction with the antibodies captured on the sensor chip. A buffer consisting of 20 mmol/L N-(2-acetamido)-2-aminoethanesulfonic acid (ACES), 150 mmol/L NaCl and 0.05% (w/v) polysorbate 20 (Tween 20®) (pH 7.4) was used for the running buffer, and this buffer was also used to dilute the human FcγRs. 10 mmol/L glycine-HCl (pH 1.5) was used to regenerate the sensor chip. All measurements were carried out at 25° C.
Binding activity to human FcγRs can be represented by the relative binding activity to human FcγRs. Antibody was captured by Protein L, and the amount of change in a sensorgram before and after the antibody was captured was defined as X1. […]

human FcγRIIa type R [7] = biological target: T6, human FcγRIIa type R (human, UniProt P12318 36-217); assay: SPR (Biacore), amount of FcγR bound to captured antibody relative to IL6R-BF648/IL6R-L x100
T6 construct: also called FcgRIIaR; FcγRIIa(R)
T6 chain: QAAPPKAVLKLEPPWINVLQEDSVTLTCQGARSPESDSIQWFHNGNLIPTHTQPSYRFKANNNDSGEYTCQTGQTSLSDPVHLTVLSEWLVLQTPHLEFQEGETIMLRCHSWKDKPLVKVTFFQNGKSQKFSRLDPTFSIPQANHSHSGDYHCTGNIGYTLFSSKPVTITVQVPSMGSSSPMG
Description: According to the following method, relative binding activities were calculated for the results of analyzing interactions with the respective FcγRs.

T4 sequence (P12314 16-292 limits assumed): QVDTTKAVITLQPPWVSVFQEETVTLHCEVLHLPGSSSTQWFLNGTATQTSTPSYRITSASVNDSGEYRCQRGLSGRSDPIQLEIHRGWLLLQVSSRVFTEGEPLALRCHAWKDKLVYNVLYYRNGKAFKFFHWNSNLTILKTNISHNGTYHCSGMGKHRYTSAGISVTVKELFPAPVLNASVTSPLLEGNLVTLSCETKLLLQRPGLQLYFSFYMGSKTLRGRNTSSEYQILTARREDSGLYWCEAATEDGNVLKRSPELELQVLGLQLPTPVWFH
T5 sequence (P08637 other isoform, or with tags, fused parts or gaps limits assumed): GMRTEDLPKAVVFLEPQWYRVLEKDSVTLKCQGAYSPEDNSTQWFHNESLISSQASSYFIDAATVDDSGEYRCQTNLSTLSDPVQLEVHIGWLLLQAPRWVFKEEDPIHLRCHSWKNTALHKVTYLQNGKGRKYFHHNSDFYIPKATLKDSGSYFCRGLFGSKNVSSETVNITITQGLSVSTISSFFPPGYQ

relative binding activity (human FcγRIIb [1]): 2 % of GpH7-B3/GpL16-k0
B1: GpH7-B3 L235R/GpL16-k0 (antibody, human IgG1)
heavy: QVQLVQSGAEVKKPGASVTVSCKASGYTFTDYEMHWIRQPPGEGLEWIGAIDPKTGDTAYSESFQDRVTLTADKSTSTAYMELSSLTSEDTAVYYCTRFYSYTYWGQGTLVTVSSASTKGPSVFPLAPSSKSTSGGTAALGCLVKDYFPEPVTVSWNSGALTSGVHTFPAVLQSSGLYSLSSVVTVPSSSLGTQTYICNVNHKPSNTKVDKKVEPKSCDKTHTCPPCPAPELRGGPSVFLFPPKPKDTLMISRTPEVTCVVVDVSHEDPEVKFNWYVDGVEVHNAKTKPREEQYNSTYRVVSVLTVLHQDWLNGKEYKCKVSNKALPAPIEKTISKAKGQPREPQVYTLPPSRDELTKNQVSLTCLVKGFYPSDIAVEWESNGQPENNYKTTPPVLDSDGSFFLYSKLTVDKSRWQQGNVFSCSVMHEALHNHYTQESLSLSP
light: DIVMTQSPLSLPVTPGEPASISCQASESLVHSNRNTYLHWYLQKPGQSPQLLIYKVSNRFSGVPDRFSGSGSGTDFTLKISRVEAEDVGVYYCSQNTHVPPTFGQGTKVEIE
notes: anti-glypican-3 IgG1; B3 constant region (G1d with K439E); also called B3 variant; copies: 2 + 2

KD(IIb) of parent polypeptide/KD(IIb) of altered polypeptide (human FcγRIIb [2]): 3.5
Kd (human FcγRIIb [3]): 2 µM
Kd (human FcγRIIa type R [4]): 21 µM
Kd (human FcγRIa): 0.14 µM
KD(IIaH)/KD(IIb) (human FcγRIIb [5]): 12.8
KD(IIaR)/KD(IIb) (human FcγRIIb [6]): 10.7
B2: IL6R-PD080/IL6R-L (antibody)
heavy: QVQLQESGPGLVKPSETLSLTCAVSGHSISHDHAWSWVRQPPGEGLEWIGFISYSGITNYNPSLQGRVTISRDNSKNTLYLQMNSLRAEDTAVYYCARSLARTTAMDYWGEGTLVTVSSASTKGPSVFPLAPSSKSTSGGTAALGCLVKDYFPEPVTVSWNSGALTSGVHTFPAVLQSSGLYSLSSVVTVPSSSLGTQTYICNVNHKPSNTKVDKKVEPKSCDKTHTCPPCPAPELLGDDSVFLFPPKPKDTLYISRTPEVTCVVVDVSHEDPEVKFNWYVDGVEVHNAKTKPREEQYNSTYRVVSVLTVLHQDWLNGKEYKCKVSNKALPAPIEKTISKAKGQPREPQVYTLPPSRDELTKNQVSLTCLVKGFYPSDIAVEWESNGQPENNYKTTPPVLDSDGSFFLYSKLTVDKSRWQQGNVFSCSVMHEALHYHYTQKSLSLSP
light: DIQMTQSPSSLSASVGDRVTITCRASQDISSYLNWYQQKPGKAPKLLIYYTSRLHSGVPSRFSGSGSGTDFTFTISSLQPEDIATYYCQQGNTLPYTFGQGTKVEIK
notes: Alteration is counted against IL6R-F11; also called G237D/P238D; P238D/G237D

BINDING AMOUNT (RU) (human FcγRIIIa(F)): 4.09 RU
B3: antibody containing VH3-IgG1-F1356 for the heavy chain and L(WT)-CK for the light chain (antibody)
heavy: QVQLQESGPGLVKPSETLSLTCAVSGHSISHDHAWSWVRQPPGEGLEWIGFISYSGITNYNPSLQGRVTISRDNSKNTLYLQMNSLRAEDTAVYYCARSLARTTAMDYWGEGTLVTVSSASTKGPSVFPLAPSSKSTSGGTAALGCLVKDYFPEPVTVSWNSGALTSGVHTFPAVLQSSGLYSLSSVVTVPSSSLGTQTYICNVNHKPSNTKVDKKVEPKSCDKTHTCPPCPAPELLRGPSVFLFPPKPKDTLYISRTPEVTCVVVDVSHEDPEVKFNWYVDGVEVHNAKTKPREEQYNSTYRVVSVLTVLHQDWLNGKEYKCKVSNKARPAPIEKTISKAKGQPREPQVYTLPPSRDELTKNQVSLTCLVKGFYPSDIAVEWESNGQPENNYKTTPPVLDSDGSFFLYSKLTVDKSRWQQGNVFSCSVMHEALHYHVTQKSLSLSP
light: not shown

relative binding activity (human FcγRIIa type R [7]): 661 % of IL6R-BF648/IL6R-L
B4: IL6R-BP195/IL6R-L (antibody, human IgG1, name in EU numbering)
heavy: QVQLQESGPGLVKPSETLSLTCAVSGHSISHDHAWSWVRQPPGEGLEWIGFISYSGITNYNPSLQGRVTISRDNSKNTLYLQMNSLRAEDTAVYYCARSLARTTAMDYWGEGTLVTVSSASTKGPSVFPLAPSSKSTSGGTAALGCLVKDYFPEPVTVSWNSGALTSGVHTFPAVLQSSGLYSLSSVVTVPSSSLGTQTYICNVNHKPSNTKVDKKVEPKSCDKTHTCPPCPAPDYLGDDSVFLFPPKPKDTLMISRTPEVTCVVVDVSDEDGEVKFNWYVDGVEVHNAKTKPREEQDNSTYRVVSVLTVLHQDWLNGKEYKCKVSNAALPKPIEKTISKAKGQPREPQVYTLPPSRDELTKNQVSLTCLVKGFYPSDIAVEWESNGQPENNYKTTPPVLDSDGSFFLYSKLTVDKSRWQQGNVFSCSVMHEALHNHYTQESLSLSP
light: DIQMTQSPSSLSASVGDRVTITCRASQDISSYLNWYQQKPGKAPKLLIYYTSRLHSGVPSRFSGSGSGTDFTFTISSLQPEDIATYYCQQGNTLPYTFGQGTKVEIK
notes: Anti-human IL-6 receptor IgG1 Fc variant; also called E233D/L234Y/G237D/P238D/H268D/P271G/Y296D/K326A/A330K; copies: 2 + 2
